T1: human B7H4, full length, on cells (human, UniProt Q7Z7D3 25-282)
T1 construct: Uniprot Q7Z7D3; Used for transfected HEK cells and for the B7H4-expressing human tumor cell lines (endogenous B7H4); also called VTCN1
T1 sequence: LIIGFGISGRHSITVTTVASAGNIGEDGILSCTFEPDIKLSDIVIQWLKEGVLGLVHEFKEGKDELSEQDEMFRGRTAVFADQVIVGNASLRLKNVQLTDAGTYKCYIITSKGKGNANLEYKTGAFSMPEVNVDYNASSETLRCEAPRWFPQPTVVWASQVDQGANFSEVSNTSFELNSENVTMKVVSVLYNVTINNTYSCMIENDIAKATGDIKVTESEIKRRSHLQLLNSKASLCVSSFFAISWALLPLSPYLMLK

T2: B7H3-IgV/B7H4-IgC
T2 construct: also called chimeric molecule with the IgV domain of B7H3 and the IgC domain of B7H4
T2 full-length chimeric protein on cells: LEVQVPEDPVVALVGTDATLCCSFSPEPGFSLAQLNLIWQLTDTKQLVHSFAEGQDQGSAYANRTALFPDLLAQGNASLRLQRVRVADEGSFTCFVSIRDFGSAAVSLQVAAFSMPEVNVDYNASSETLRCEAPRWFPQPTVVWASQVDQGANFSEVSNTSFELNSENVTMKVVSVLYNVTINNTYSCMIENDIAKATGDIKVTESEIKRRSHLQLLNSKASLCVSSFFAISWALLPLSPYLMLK

T3: rabbit (Oryctolagus cuniculus) B7H4, full length, on HEK-293F cells (rabbit, UniProt Q7Z7D3 25-282 (human entry))
T3 construct: Uniprot G1TQE8; also called rabbit B7H4
T3 chain: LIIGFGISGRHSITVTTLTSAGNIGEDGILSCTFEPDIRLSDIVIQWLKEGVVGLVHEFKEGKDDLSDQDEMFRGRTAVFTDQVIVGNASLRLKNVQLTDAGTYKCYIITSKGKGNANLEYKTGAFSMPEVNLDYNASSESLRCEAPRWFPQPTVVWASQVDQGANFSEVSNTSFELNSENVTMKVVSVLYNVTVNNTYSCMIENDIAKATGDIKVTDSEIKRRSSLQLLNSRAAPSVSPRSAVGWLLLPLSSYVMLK

T4: dog (Canis familiaris) B7H4, full length, on HEK-293F cells (dog, UniProt Q7Z7D3 25-282 (human entry))
T4 construct: Uniprot F1P8R9; also called dog B7H4
T4 chain: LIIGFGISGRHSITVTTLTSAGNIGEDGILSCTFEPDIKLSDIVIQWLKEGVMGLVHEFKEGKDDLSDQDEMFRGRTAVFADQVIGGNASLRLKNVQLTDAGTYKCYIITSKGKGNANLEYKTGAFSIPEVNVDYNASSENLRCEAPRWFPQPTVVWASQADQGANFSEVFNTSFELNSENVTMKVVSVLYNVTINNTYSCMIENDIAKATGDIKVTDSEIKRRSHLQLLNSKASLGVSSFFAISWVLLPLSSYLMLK

B1: bsIgG1-huCD3-H101G-FEALxB7H4-C1-N52S-FEAR (bispecific antibody)
heavy 1: not shown
light 1: not shown
heavy 2: QVQLQQWGAGLLKPSETLSLTCAVYGGSFSGYYWSWIRQPPGKGLEWIGEISHSGSTNYNPSLKSRVTISIDTSKNQFSLKLTSVTAADTAVFYCARGLFNWNFDSWGQGTLVTVSSASTKGPSVFPLAPSSKSTSGGTAALGCLVKDYFPEPVTVSWNSGALTSGVHTFPAVLQSSGLYSLSSVVTVPSSSLGTQTYICNVNHKPSNTKVDKRVEPKSCDKTHTCPPCPAPEFEGGPSVFLFPPKPKDTLMISRTPEVTCVVVAVSHEDPEVKFNWYVDGVEVHNAKTKPREEQYNSTYRVVSVLTVLHQDWLNGKEYKCKVSNKALPAPIEKTISKAKGQPREPQVYTLPPSREEMTKNQVSLTCLVKGFYPSDIAVEWESNGQPENNYKTTPPVLDSDGSFFLYSRLTVDKSRWQQGNVFSCSVMHEALHNHYTQKSLSLSPGK
light 2: DIQMTQSPSSLSASVGDRVTITCRASQGIRNDLGWYQQKPGKAPKRLIYGASSLQSGVPSRFSGSGSGTEFTLTISSLQPEDFATYYCLQHNSYPRTFGQGTTVEIKRTVAAPSVFIFPPSDEQLKSGTASVVCLLNNFYPREAKVQWKVDNALQSGNSQESVTEQDSKDSTYSLSSTLTLSKADYEKHKVYACEVTHQGLSSPVTKSFNRGEC
notes: also called bslgG1-huCD3-H101G-FEALxB7H4-C1-N52S-FEAR; BslgG1-huCD3-H101G-FEALxB7H4-C1-N52S-FEAR
B2: IgG1-B7H4-C5-FEAR (antibody, V domains shown)
VH: QLQLQESGPGLVKPSETLSLTCTVSGGSIKSGSYYWGWIRQPPGKGLEWIGNIYYSGSTYYNPSLRSRVTISVDTSKNQFSLKLSSVTAADTAVYYCAREGSYPNQFDPWGQGTLVTVSS
VL: EIVMTQSPATLSVSPGERATLSCRASQSVSSNLAWYQQKPGQAPRLLIYGASTRATGIPARFSGSGSGTEFTLTISSLQSEDFAVYYCQQYHSFPFTFGGGTKVEIKR
notes: Full length IgG1 FEAR, kappa; variable domains from US20190085080A1

Columns and labels:
[1] = molecular target: T1, human B7H4, full length, on cells; assay: flow cytometry on HCC1954 tumor cells [panel HCC1954 cells]
Protocol: (§1) Cells (3×10⁴ cells/well) were incubated in polystyrene 96-well round-bottom plates (Greiner bio-one, cat. no. 650180) with serial dilutions of antibodies (ranging from 0.000458 to 30 μg/mL in 4-fold dilution steps) in 100 μL PBS/0.1% BSA/0.02% azide (staining buffer) at 4° C. for 30 min. Experiments were performed in technical duplicate. After washing twice in staining buffer, cells were incubated in 50 μL secondary antibody at 4° C. for 30 min. As a secondary antibody, R-Phycoerythrin (PE)-conjugated goat-anti-human IgG F(ab′)₂ (1:500 in FACS buffer; Jackson ImmunoResearch Laboratories, Inc., West Grove, PA, cat. no. 109-116-098), was used. Cells were washed twice in staining buffer, re-suspended in 30 μL FACS buffer containing Topro-3 (1:10,000 dilution) and analyzed on an iQue Screener (Intellicyt Corporation, USA). Binding curves were analyzed using non-linear regression (sigmoidal dose-response with variable slope) using GraphPad Prism V7.02 software (GraphPad Software, San Diego, CA, USA).
(§2) Binding was analyzed by flow cytometry as described above.

B7H3-IgV/B7H4-IgC = molecular target: T2, B7H3-IgV/B7H4-IgC; assay: flow cytometry, HEK cells transiently transfected with B7H3-IgV/B7H4-IgC, PE anti-human IgG F(ab')2 [panel B7H3-IgV/B7H4-IgC]
Protocol: After washing twice in FACS buffer, cells were incubated with secondary antibody at 4° C. for 30 min. […] Next, cells were washed twice in FACS buffer, re-suspended in 20 μL FACS buffer and analyzed on an iQue Screener (Intellicyt Corporation, USA).
Further experiments were conducted to study the B7H4 domain specificity of the B7H4 antibodies in more detail, by analysis of full dose-response curves.

[2] = molecular target: T1, human B7H4, full length, on cells; assay: flow cytometry on NIH-OVCAR-3 tumor cells [panel NIH-Ovcar-3 cells]
Protocol: as §1, §2

[3] = molecular target: T3, rabbit (Oryctolagus cuniculus) B7H4, …; assay: flow cytometry, transiently transfected HEK-293F cells
[4] = molecular target: T4, dog (Canis familiaris) B7H4, full …; assay: as above

Binder | EC50 (read off the curve) [1] [µg/mL] | binding result (B7H3-IgV/B7H4-IgC) | EC50 (read off the curve) [2] [µg/mL] | binding result [3] | binding result [4]
B1 | ~3 | binds | ~2 | – | –
B2 | – | – | – | binds | binds
